Assay results published in patent US20240117055A1.

Columns and labels:
[1] = molecular target: Recombinant Human Axl Protein Axl-tag 5 (human) (UniProt P30530); assay: competition ELISA on immobilized Axl-tag 5; unlabeled antibody 50 ug/mL; competitor Biot-v77-2a37.1 (1 ug/mL)
[2] = molecular target: Recombinant Human Axl Protein Axl-tag 5 (human) (UniProt P30530); assay: competition ELISA on immobilized Axl-tag 5; unlabeled antibody 50 ug/mL; competitor Biot-v77-2a37.1 (1 ug/mL), whose signal is read
[3] = molecular target: Recombinant Human Axl Protein Axl-tag 5 (human) (UniProt P30530); assay: competition ELISA on immobilized Axl-tag 5; unlabeled antibody 50 ug/mL; competitor Biot-M77-297b81.1.1 (1 ug/mL), whose signal is read
[4] = molecular target: Recombinant Human Axl Protein Axl-tag 5 (human) (UniProt P30530); assay: competition ELISA on immobilized Axl-tag 5; unlabeled antibody 50 ug/mL; competitor Biot-M77-297b81.1.1 (1 ug/mL)

Chain of UniProt P30530 (P30530 26-451): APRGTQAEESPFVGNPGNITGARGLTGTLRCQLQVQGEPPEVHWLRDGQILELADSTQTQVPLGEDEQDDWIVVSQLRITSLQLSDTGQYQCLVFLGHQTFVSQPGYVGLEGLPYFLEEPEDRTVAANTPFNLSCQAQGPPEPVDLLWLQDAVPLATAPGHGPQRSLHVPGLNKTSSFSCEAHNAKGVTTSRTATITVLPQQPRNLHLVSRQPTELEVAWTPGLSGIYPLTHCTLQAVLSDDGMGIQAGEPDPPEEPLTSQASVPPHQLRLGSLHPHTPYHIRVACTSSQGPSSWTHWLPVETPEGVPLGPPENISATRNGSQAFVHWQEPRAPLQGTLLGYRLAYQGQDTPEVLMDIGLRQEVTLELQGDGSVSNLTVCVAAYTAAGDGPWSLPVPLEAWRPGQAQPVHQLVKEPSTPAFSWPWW

% competition [1]: 3.3%
OD (650 nm) [2]: 1.81 OD (650 nm)
OD (650 nm) [3]: 2.13 OD (650 nm)
% competition [4]: 1.5%
Substance: Cell Signaling rabbit monoclonal anti-AXL antibody AXL(C89E7)
